Laboratory results taken from the nanobody polyreactivity screen of Harvey et al. (2022).

Experiment: yeast display, Sf9 membrane polyspecificity reagent, FACS + sequencing; frameworks hold sequencing errors
Summary of the method: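 Synthetic nanobody libraries on Saccharomyces cerevisiae BJ5465 were galactose-induced for 36–48 hours, stained 1 hour at 4 °C with 10% biotinylated, detergent-solubilized Sf9 membrane reagent and enriched on streptavidin microbeads. FACS then separated cells into low and high (top ~1%) gates by anti-HA (expression) and streptavidin (reagent binding) fluorescence. Genes were colony-PCR amplified, MiSeq 2 × 250 sequenced and CDR-length filtered. A clone's polyreactivity label is that of its gate of origin.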
With “QVQLVESGGGLVQAGGSLRLSCAASGRIFKYYAMGWYRQAPGKERELVSTISRGGGSTFYADSVKGRFTISRDNAKNTVYLQMNSLKPEDTAVYYCAVDVTFKRWYSTASSTHDYWGQGTQVTVSS” the “polyreactivity (PSR sort gate)” value was “high polyreactivity”. In the case of “QVQLVESGGGLVQAGGSLRLSCAASGRIFYHYAMGWYRQAPGKERELVAVIRSTGSTNYADSVKGRFTISRDNAKNTVYLQMNSLKPEDTAVYYCAVRRATYSYWYFNGGYWGQGTQVTVSS”, the “polyreactivity (PSR sort gate)” value is reported as “high polyreactivity”. For “QVQLVESGGGLVQAGGSLRLSCAASGRIFRGYAMGWYRQAPGKEREFVADITRSGGSTYYADSVKGRFTISRDNAKNTVYLQMNSLKPEDTAVYYCAREWYQYSPYHRFDYWGQGTQVTVSS”, the “polyreactivity (PSR sort gate)” value was “high polyreactivity”. For “QVQLVESGGGLVQAGRSLRLSCAASGNTLRPNGMGWYRPAPGKERELVAAISSGGSTYYADSVKGRFTISRDNAKNTVYLQMNSLKPEDTAVYYCAAEYWYDYWGQGTQVTVSS”, the “polyreactivity (PSR sort gate)” value was “low polyreactivity”. For “QVQLVESVGGLVQAGGSLRLSCAASGLIFIISTMGWDRQAPGKERELVAAITRRGGITYYADSVKGRFTISRDNAKNTVYLQMNSLKPEDTAVYYCAVVRPYNIWYDYWGQGTQVTVSS”, the “polyreactivity (PSR sort gate)” value was “low polyreactivity”. In the case of “QGQHVESGGGLVQAGGRLRLSCAASGSTFGDNAMGWSRQAPGKERELVAAISSGSGGSTYYADSVKGRFTISRDNAKNTVYLQMNSLKPEDTAVYYCADVGPYGYYYGHYGYWGQGTQVTVSS”, the “polyreactivity (PSR sort gate)” value is reported as “low polyreactivity”. With “QVQLVESGGGLVQAGGSLRLSCAASGGILPKYAMGWYRQAPGKERELVAAIDGGADSTYYADSVKGRFTISRDIAKNTVYLQLNSLKPEDTAVYFCGADGSLHAGHWRTYGYYYWGQGTQVTVSS” the “polyreactivity (PSR sort gate)” value was “low polyreactivity”. With “QVQLVESGGGLVQAGGSLRLSCAASGSIFTRNAMGWYRQAPGKERELVASISYSGGNTYYADSVKGRFTISRDNAKNTVYLQMNSLKPEDTAVYYCNARRWFYLLYGYDYWGQGTQVTVSS” the “polyreactivity (PSR sort gate)” value was “high polyreactivity”. In the case of “QVQLVDSWGGLVQAGGSLRLSCAASGRTSRYAMGWYRQAPGKERELVAAITSSGGRTYYADSVKGRFTISRDNAKNTVYLQMNSLKPEDTAVYYCAAGYLLWRTWDYAAGHNYWGQGTQVTVSS”, the “polyreactivity (PSR sort gate)” value is reported as “high polyreactivity”. For “QVQLVESGGGLVQAGGSLRLSCAASGRTFRYYAMGWYRQAPGKERELVAAISWDGARSYYADSVKGRFTISRDNAKNTVYLQMNSLKPEDTAVYYCAADFPGGTDRYYPMDYWGQGTQVTVSS”, the “polyreactivity (PSR sort gate)” value was “low polyreactivity”. With “QVQLVDTGGGLVQAGGSLRLSCAASGSIFHNNSRGWYRQATGKERELVAAIRRSGGSTSYADSVKGRFTISLDNAKNTVYLQMNSLKPEDTAVYYCNKRFVRFSPEYGYWGQGNQVTVSS” the “polyreactivity (PSR sort gate)” value was “low polyreactivity”. For “QVQLVESGGGLVQAGGSLRLSCAASGSTFKQYTMGWYRQAPGKERELVAAISWSGTSTYYADSVKGRFTISRDNAKNTVYLLMNSLKAEDTAVYYCAAVSYVWQYYYWGQGTQVTVSS”, the “polyreactivity (PSR sort gate)” value was “high polyreactivity”. With “QVQLVESGGGLVQAGGSLRLSCAASGITFYLYVMGWYRQAPGKERELVAAISSGGSTYYADSVKGRFTISRDNAKNTVYLQMNSLKPEDTAVYYCAADVARYLHYSYHEDYYWGQGTQVTVSS” the “polyreactivity (PSR sort gate)” value was “low polyreactivity”. For “QVQLVESGGGLVQAGGSLRLTCAASGNIYLYYAMGWYRQAPGKERELVADIDSSGASTYYADSVKGRFTSSRDNAKNTVYLQMNSLKAEDTAVYYCAAEFHWWYAGYDYGYWGQGTQVTVSS”, the “polyreactivity (PSR sort gate)” value was “low polyreactivity”. In the case of “QVQLVESGGRLVQAGGSLRLSCAASGRIFTQYAMGWYRQSPGKERELVAAINASDGSTYADSVKGRFTSSRDNAQNTVYLQMKRLKPADTAVYYCNVTGGTYDFTRWSEFDHWGQGTQVTVSS”, the “polyreactivity (PSR sort gate)” value is reported as “low polyreactivity”. For “QVQLVESGGGLVQAGGSLRLSCAASGRIFNLYDMGWYRQAPGKERELVAAIRIGDRTYYADSVKGRFTISRDNEKNTVYLQMNSLKQEDTAVYYCNREYLSNRDKRFFYWGQGTQVTVSS”, the “polyreactivity (PSR sort gate)” value was “low polyreactivity”. With “QVQLVESGGGLVQAGGSLRLSCAASGSIFPAYDMGWYRQAPGKERELVAAIDRGGSTYYADSVKGRFTISRDNAKNTVYLQMNSLKPEDTAVYYCATGYWNTSVYVRLEKRDYWGQGTQVTVSS” the “polyreactivity (PSR sort gate)” value was “low polyreactivity”.
